In IntAct's records for PubMed 11575918:

B1: RING finger protein Z (Lymphocytic choriomeningitis virus (strain Armstrong)), P18541 (parent)
chain: MGQGKSREEKGTNSTNRAEILPDTTYLGPLSCKSCWQKFDSLVRCHDHYLCRHCLNLLLSVSDRCPLCKYPLPTRLKISTAPSSPPPYEE

Variants of: B1
Settings: with if4e_human EIF4E

Variant	effect of a mutation on the interaction
MGQGKSREEKGTNSTNRAEILPDTTYLGPLSGKSFWQKFDSLVRCHDHYLCRHCLNLLLSVSDRCPLCKYPLPTRLKISTAPSSPPPYEE [C32G;C35F]	decreasing interaction
MGQGKSREEKGTNSTNRAEILPDTTYLGPLSCKSCWQKFDSLVRCHDHYLCRHCLNLLLSVSDRAPLAKYPLPTRLKISTAPSSPPPYEE [C65A;C68A]	decreasing interaction
